Test results published in paper PMC7817217 (Proceedings of the National Academy of Sciences of the …, 2020).
Substitutions are numbered along the chain they refer to.

B1: bACE2-Rm (H41-Q42) mutant, mouse Fc tagged (Fc fusion)
chain: STTEDEAKKFLDKFNSKAEDLSHQSSLASWDYNTNISDENVQKMDEAGAKWSAFYEEQSKLAKNYPLEEIQNDTVKRQLQILQQSGSPVLSEDKSKRLNSILNAMSTIYSTGKVCKPNNPQECLLLEPGLDNIMGTSKDYNERLWAWEGWRAEVGKQLRPLYEEYVVLKNEMARGYHYEDYGDYWRRDYETEESSGPGYSRDQLMKDVDRIFTEIKPLYEHLHAYVRAKLMDTYPLHISPTGCLPAHLLGDMWGRFWTNLYPLTVPFGQKPNIDVTDAMLNQGWDANRIFKEAEKFFVSVSLPKMTEGFWNKSMLTEPGDGRKVVCHPTAWDLGKGDFRIKMCTKVTMEDFLTAHHEMGHIQYDMAYASQPYLLRNGANEGFHEAVGEVMSLSVATPKHLKTMGLLSPDFREDDETEINFLLKQALNIVGTLPFTYMLEKWRWMVFKGEIPKEEWMKKWWEMKREIVGVVEPVPHDETYCDPASLFHVANDYSFIRYYTRTIFEFQFHEALCRIAQHNGPLHKCDISNSTDAGKKLHQMLSVGKSQAWTKTLEDIVDSRNMDVGPLLRYFKPLYTWLQEQNRKSYVGWNTDWSPYAD
B2: bACE2-Rm (Y41-Q42) mutant, mouse Fc tagged (Fc fusion)
chain: B1 chain with H23Y

Target: SARS-CoV-2 spike protein receptor binding domain (RBD) (SARS-CoV-2, UniProt P0DTC2 319-541)
Test: SPR

Binder | Kd [µM]
B1 | 2.22
B2 | 0.25
